The target of experiment [1] is UBXN7-WT (human) (UniProt O94888). As to the kind of experiment: ITC; VP-ITC; 200 µM RNF111 RING domain injected (20 x 10 µl) into 10 µM UBXN7-WT or UBXN7-UAS, or into 15 µM UBXN7-∆UAS, in the cell; 25 °C; phosphate-buffered saline pH 7.4, 1 mM TCEP; single binding site model. On the technique in general: ITC needs no label: the signal is the heat of the interaction.

The target of experiment [2] is UBXN7-UAS recombinant protein (human) (UniProt O94888). The experiment can be described thus: ITC; VP-ITC, 25 °C, PBS pH 7.4 with 1 mM TCEP; 200 µM RNF111 RING domain injected (20 x 10 µl) into 10 µM UBXN7-WT or UBXN7-UAS or 15 µM UBXN7-∆UAS; single binding site model.
UBXN7-UAS recombinant protein (human), sequence (O94888 94-284): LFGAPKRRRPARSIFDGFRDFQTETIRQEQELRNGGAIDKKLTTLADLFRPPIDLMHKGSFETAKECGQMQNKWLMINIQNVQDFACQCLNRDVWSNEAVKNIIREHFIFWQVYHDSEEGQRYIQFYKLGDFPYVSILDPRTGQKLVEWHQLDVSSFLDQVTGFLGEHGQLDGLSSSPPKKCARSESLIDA
Experiment [3] concerns the target UBXN7-WT (human) (UniProt O94888). Described as above.

A word on the Kd: it is the free concentration of one partner at which half of the binding sites on the other are occupied at equilibrium, for simple one-to-one binding. As a reminder, the stoichiometry N is the number of molecules, sites or subunits per partner or assembly.

“And” between values parts separate entries of the source, which are not always exact repeats. Equal entries are not always repeated.

UBXN7-WT (human), sequence (O94888 whole entry, the tested form may be a part): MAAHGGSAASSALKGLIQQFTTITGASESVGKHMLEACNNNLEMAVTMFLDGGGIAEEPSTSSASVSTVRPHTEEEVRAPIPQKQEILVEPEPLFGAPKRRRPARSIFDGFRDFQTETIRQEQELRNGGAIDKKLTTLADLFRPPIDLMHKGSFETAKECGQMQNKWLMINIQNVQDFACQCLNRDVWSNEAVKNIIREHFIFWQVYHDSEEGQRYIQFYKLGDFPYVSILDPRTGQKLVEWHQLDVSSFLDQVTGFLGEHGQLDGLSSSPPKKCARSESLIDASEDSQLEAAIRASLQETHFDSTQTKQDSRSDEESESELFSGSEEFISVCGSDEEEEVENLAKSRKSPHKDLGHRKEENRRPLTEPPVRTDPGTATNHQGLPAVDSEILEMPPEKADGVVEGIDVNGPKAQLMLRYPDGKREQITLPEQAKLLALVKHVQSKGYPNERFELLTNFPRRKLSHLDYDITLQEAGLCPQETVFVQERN

Consider “RNF111 RING domain (RNF111-RING, aa 895 to Cter) (domain or fragment)”, for which, in the experiment with UBXN7-WT (human) [1], the Kd is 2490 nM and 2260 nM; the stoichiometry N is 0.928 and 1.11. In the experiment with UBXN7-WT (human) [1] (mean), the equilibrium dissociation constant (Kd) amounted to 2370 nM and the stoichiometry N was 1.02.
Take “RNF111-RING recombinant protein (domain or fragment)”: the dissociation constant (Kd) in experiment [2] amounted to 900 nM; with UBXN7-WT (human) [3], 2300 nM. Also, the stoichiometry N (in experiment [2]; with UBXN7-WT (human) [3]) was 1 in each case.
